Measured values reported in the RNAGym collection of RNA variant scans (doi:10.1073/pnas.2313332121).

B1: TPR t1 (parent)
chain: GACCAAUCUGCCCUCAGAGCUCGAGAACAUCUUCGGAUGCAGAGGAGGCAGGCUUCGGUGGCGCGAUAGCGCCAACGUCCUCAACCUCCAAUGCAUCCCACCACAUGAUGAUGCCUGAAGAGCCUUGGUUUUUUG

Variants of: B1
Experiment: polymerase ribozyme fitness, log enrichment relative to wild type (log ratio); higher = more active; in vitro selection for triplet polymerase activity
Summary of the method: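 Frozen incubation at −7 °C formed the core of a single, triplicate in vitro selection round applied to PCR-built, transcribed mutant libraries of each subunit of a heterodimeric triplet polymerase ribozyme. Extended constructs were gel-excised, captured with streptavidin beads and amplified by RT-PCR, and input and output libraries were Illumina-sequenced with a filter of ≥10 input reads and ≥1 read per output. Fitness is the logarithm of genotype enrichment relative to wild-type enrichment, with inverse-variance-weighted replicate averaging, and the logarithm is base 2.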

Variant | polymerase ribozyme fitness (log ratio)
C28U A46U G48A A95G C124G | -3.31
C28U G44C C79U C82U U126C G127U U129G | -3.26
A29G U32C A50U | -1.45
C31G G120C | -5.91
C31G G120A | -5.69
U33G G47C G61C C80A U112A U116C A119U | -6.76
U33A C64U U87A | -4.27
A29G A43G G107U C124U | -6.92
U32G A41G C70U C89G C114U | -5.66
U32C C79U U106C | -0.788
C28U G36C C56U U81C G122U C124U U132C | -2.46
U32G A43G C73U A105U G120C | -7.51
A29G G44U | -2.04
U33A G44A G51A G63A A66G A74U A111U | -7.25
A29G C53G A95G | -2.04
A29U A50C C98U | -3.99
A29U G61A C82G U116C U125A | -3.67
A29G A74U U109A C114U | -4.26
A29U C98A U109G | -4.46
A29U U112G U133C | -1.1
U32C G44U G60A | -0.98
U32C A50G C79U C88U C114A G122A | -2.69
C31G U33A C64A G120C | -6.19
U33A U59A U112C G122C | -4.47

Variant | polymerase ribozyme fitness (log ratio)
C34A A46U A68U G71C C124G | -7.38
A29G G71A G120U U132A | -2.06
A29C C56G C73A A119G | -3.16
C34A C101U C104U U133A | -1.95
U32G A37G G113C | -5.08
U33C U131A | -4.45
C31G G61C | -7.02
C28U G45C C76A C89G G120C | -5.73
C34A C94U A121G U125A U129A | -3
A29U G69U U81C A100U C124A | 0.115
U33G G63C C124A | -4.77
U32C C49U A95C U133A | -1.67
U32C G48C | -1.44
C31G G44U G52U C62U C85U C115U G117A | -7.35
U33G C49G G57A C62U A84C C88G G93A G110C | -7.42
C28U G39A G45A G120A | -2.28
C34A G52A U96C C124A | -1.41
C31U G36C G61A | -4.05
C28U A100C C102U U112C | -4.83
C34A C97G U125A | -3.42
A29G C34A C40A U106G G113U U126C | -7.15
U30C C88U | -2.37
C28U C73U U81A U106C | -3.5
U33C A46G C64G C86A C115G | -5.34

Variant | polymerase ribozyme fitness (log ratio)
C28U C49U | -3.27
C28U G60U | -1.24
C28U G60A | -2.05
C28U U78C C101U | -2.49
U32A G39U G45C C64G C114A | -6.51
A29G G63U G120C | -1.96
U32C G60U A66G C89G | -6.79
C34A G57C | -2.62
U32C C124G | 1.48
A29G G120U | -0.745
C34A A75G | -2.34
C31G C56A G60U U109A | -7.12
U33A C72A C76A | -6.92
C28U G52A C73U | -2.19
C28U G113C | -3.57
C28U G113A | -2
A29U C40U C49A A68G U106A | -4.25
C28U C72A | -2.49
U33G U133G | -6.24
C31A | -5.84
C31G | -7.22
C31U | -4.29
U33G C56A C88U | -4.09
C28U A41G A121C | -0.919

Variant | polymerase ribozyme fitness (log ratio)
U32A A41U | -5.52
C28U A50U C70A U106A G110A C114A | -5.71
U33A U129A | -6.13
C31A C115U | -7.47
C28U G45C | -3.26
C28U G45A | -2.04
C31A C56U | -4.45
A29C C53U C80U A90G | -3.07
C31G G48U G65A C86G A100C G120C | -6.59
A29G A46U G52U G57U U87G C115G | -4.9
A29G A83C | -1.32
C34A A50C C53G U106A A111C | -5.87
C28U C56U C101U G120U | -2.65
C31U U54A | -5.03
C31G C98G G110U | -6.25
C34A G44A G48A U59A G61U C72U A121C C123G | -6
C28U A119G | -1.04
C28U G42U G44U G61U | -4.27
A29G C70U G93U | -3
U30A C56A C70U | -7.2
C31U A118U C123U | -4.23
U32A G44U U55A | -5.23
U30G C49G G113C | -5.95
U32A G57U | -4.02

Variant | polymerase ribozyme fitness (log ratio)
A29U C56G C85A | -4.99
U32C C73U C85U C98U | -4.19
C28U C86A | -2.8
U32C A43U C123A | -1.31
U32C C62U C73U C85U C98U | -4.16
U33A G69U | -0.74
A29U C49G C101G C124G | -3.93
A29G U59G | -1.48
U33G U96A G110C U116G | -6.31
A29U A46G U125A | -2.44
C28U G52A C70U | -3.7
A29C A84G U87A C104U C124G | -1.28
C28U U32C G71A | -2.59
A29G C70G G120A | -2.72
A29C U106A | -1.93
U33G G47U C72U G120A | -6.26
U32A G42A U54C U116C G128A | -6.04
A29U U30G G57U G63C C72U G120A | -7.09
U30G A43U A91U G113U | -6.55
C34A G44A G48A G61U A121C C123G | -4.48
C31U A43C | -6.22
U33A C56G G69U | -2.45
A29G A41G | -1.22
A29G A41U | -1.6

Variant | polymerase ribozyme fitness (log ratio)
U32C C53A C101A G120A | -0.18
A29U A43U U78C U112A | -2.84
A29U C89U A119U | -3.93
A29U C56G A66U | -3
C28U C123U | -0.507
U33G C82U A83C | -6.87
U33C G39U A111C A121C | -5.95
A29U A83C C124A | -0.511
U30C C40U U55G | -4.05
C34A A41G | -3.94
U32G C62G G120U | -8.14
U32C C56A C80U | -1.66
U32C C40U C86G | -2.2
C31U C40U | -4.75
C28U C70U C88U | -3.74
U33A G63A | -6.46
C28U C62A C124G U133G | -2.2
C34A C64G | -6.42
U33A A46C G69U U78G | -2.03
C28U G77A U112G U125A | -3.35
C31U G69U U78C A118G | -3.16
U33A C56G | -4.38
U33G A111U A121G U125A | -6.73
A29U C72U C104U | -1.81

Variant | polymerase ribozyme fitness (log ratio)
U33G U55A C72G | -6.25
C28U A105U U112C | -4.9
C28U A43G G69U G113A | -1.82
U30C C101U A111C | -3.68
C34A G36C A46G G93U A119G | -3.14
A29U C124U | -0.47
A29G G42A G63A | -4.31
A29G A46U G52U G57U C80U U87G C115G | -5.18
C34A G60U | -3.73
C34A G60A | -3.35
U30G U32C | -6.32
U32A A43G C88U G93A C114G | -5.05
A29G A37G U54G G69C | -7.29
A29U G71U | -1.99
A29G G60C | -1.31
A29G G60A | -1.42
C31G G51U C97A C124U | -6.07
C28U C40A C124U U130A | -3.36
U30C G48U C73A C82A | -3.73
C31A C98U | -7.02
C34A G58C | -2.18
C28U U129A | -3.1
C31G A50G G60A C79A C124A | -7.23
